Reference: ChEMBL document CHEMBL1132371, “5-deazafolate analogues with a rotationally restricted glutamate or ornithine side chain: synthesis and binding interaction with folylpolyglutamate synthetase” (J Med Chem, 1999)
One block for each molecule: values may come before it.

How the values were obtained:
[1] = molecular target: T1, Folylpolyglutamate synthase, mitochondrial (Homo sapiens, UniProt Q05932); test: Binding affinity as Competitive substrate in the presence of […] aminopterin towards recombinant Human Folyl-polyglutamate synthase (FPGS)
T1 sequence (Q05932 whole entry): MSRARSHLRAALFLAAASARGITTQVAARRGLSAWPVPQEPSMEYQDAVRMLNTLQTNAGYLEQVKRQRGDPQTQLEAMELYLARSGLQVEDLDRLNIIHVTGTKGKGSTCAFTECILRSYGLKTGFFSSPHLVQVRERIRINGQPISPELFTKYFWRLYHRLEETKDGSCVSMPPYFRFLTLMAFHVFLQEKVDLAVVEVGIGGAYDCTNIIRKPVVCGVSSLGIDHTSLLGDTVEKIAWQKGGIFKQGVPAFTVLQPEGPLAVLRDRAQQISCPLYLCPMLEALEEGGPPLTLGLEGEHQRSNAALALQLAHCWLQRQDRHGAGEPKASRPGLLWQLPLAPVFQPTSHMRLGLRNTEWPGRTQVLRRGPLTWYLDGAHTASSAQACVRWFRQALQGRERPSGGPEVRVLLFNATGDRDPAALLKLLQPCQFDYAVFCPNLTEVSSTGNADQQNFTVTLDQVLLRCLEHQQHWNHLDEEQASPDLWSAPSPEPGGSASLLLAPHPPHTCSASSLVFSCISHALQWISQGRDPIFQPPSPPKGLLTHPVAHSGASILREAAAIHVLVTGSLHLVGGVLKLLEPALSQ

[2] = compound: Nc1nc(O)c2cc(CNc3ccc4c(c3)CN([C@@H](CCC(=O)O)C(=O)O)C4=O)cnc2n1; test: (§1) Binding affinity as Competitive substrate in the presence of 10 uM tetrahydrofolate towards recombinant Human Folyl-polyglutamate synthase (FPGS)
[3] = compound: Nc1nc(O)c2c(n1)NCC(CNc1ccc(C(=O)NC(CCC(=O)O)C(=O)O)cc1)C2; test: as §1
[4] = compound: Nc1nc(O)c2c(n1)NCC(CNc1ccc3c(c1)CN([C@@H](CCC(=O)O)C(=O)O)C3=O)C2; test: as §1

Ki [1]: 0.2 µM
Molecule: NCCC[C@@H](C(=O)O)N1Cc2cc(NCC3CNc4nc(N)nc(O)c4C3)ccc2C1=O (stereo not given in full)

Ki [1]: 110 µM
Molecule: NCCC[C@@H](C(=O)O)N1Cc2cc(NCc3cnc4nc(N)[nH]c(=O)c4c3)ccc2C1=O

B1: Folylpolyglutamate synthase, mitochondrial (Homo sapiens), Q05932 (protein)
chain: T1 sequence (Q05932 whole entry)
Km [2]: 2.3 µM
Km [3]: 0.26 µM
Km [4]: 0.018 µM
